{"source": "paper PMC13385800", "about": "(2026)", "assay_in_all_cases": "co-immunoprecipitation, mass spectrometry", "key": {"[1]": {"molecular_target": "endogenous SETD5 of Flp-In T-REx 293 and HEK293T cells [human (endogenous in Flp-In T-REx 293 and HEK293T)]", "settings": "n = 3 independent transfections per mutant, read off a plot"}, "[2]": {"molecular_target": "NCOR1 (endogenous, HEK293T) [Homo sapiens (Human).]", "settings": "HEK293T cells; n = 3 independent transfections per mutant; read off a plot"}, "[3]": {"molecular_target": "TBL1X (endogenous, HEK293T)", "settings": "HEK293T cells; n = 3 independent transfections per mutant; read off a plot"}, "[4]": {"molecular_target": "HDAC3 (endogenous, HEK293T)", "settings": "HEK293T cells; n = 3 independent transfections per mutant; read off a plot"}, "[5]": {"molecular_target": "GPS2 (endogenous, HEK293T)", "settings": "HEK293T cells; n = 3 independent transfections per mutant; read off a plot"}}, "data": [{"substance": "EGFP-ANKRD11 full length (FL), wild type mutant S2475P [not stated] / endogenous SETD5 of Flp-In T-REx 293 and HEK293T cells [human (endogenous in Flp-In T-REx 293 and HEK293T)] chain 1 S2475P", "values": [{"measurement": "screen value", "setting": "[1]", "result": 4.6, "unit": "log2"}]}, {"substance": "EGFP-ANKRD11 full length (FL), wild type mutant L2605R [not stated] / NCOR1 (endogenous, HEK293T) [Homo sapiens (Human).] chain 1 L2605R", "values": [{"measurement": "screen value", "setting": "[2]", "result": 7.9, "unit": "log2"}]}, {"substance": "EGFP-ANKRD11 full length (FL), wild type mutant S2475P [not stated] / NCOR1 (endogenous, HEK293T) [Homo sapiens (Human).] chain 1 S2475P", "values": [{"measurement": "screen value", "setting": "[2]", "result": 7.9, "unit": "log2"}]}, {"substance": "EGFP-ANKRD11 full length (FL), wild type (from UniProt Q6UB99) L2605R", "values": [{"measurement": "other: log2 fold change (WT/mutant)", "setting": "[3]", "result": 7.2, "unit": "log2"}, {"measurement": "other: log2 fold change (WT/mutant)", "setting": "[4]", "result": 7, "unit": "log2"}, {"measurement": "other: log2 fold change (WT/mutant)", "setting": "[5]", "result": 3.4, "unit": "log2"}]}, {"substance": "EGFP-ANKRD11 full length (FL), wild type mutant E2522K [not stated] / endogenous SETD5 of Flp-In T-REx 293 and HEK293T cells [human (endogenous in Flp-In T-REx 293 and HEK293T)] chain 1 E2522K", "values": [{"measurement": "screen value", "setting": "[1]", "result": 2.7, "unit": "log2"}]}, {"substance": "EGFP-ANKRD11 full length (FL), wild type (from UniProt Q6UB99) S2475P", "values": [{"measurement": "other: log2 fold change (WT/mutant)", "setting": "[3]", "result": 7.6, "unit": "log2"}, {"measurement": "other: log2 fold change (WT/mutant)", "setting": "[4]", "result": 7, "unit": "log2"}, {"measurement": "other: log2 fold change (WT/mutant)", "setting": "[5]", "result": 3.4, "unit": "log2"}]}, {"substance": "EGFP-ANKRD11 full length (FL), wild type mutant R2523W [not stated] / NCOR1 (endogenous, HEK293T) [Homo sapiens (Human).] chain 1 R2523W", "values": [{"measurement": "screen value", "setting": "[2]", "result": 7.4, "unit": "log2"}]}, {"substance": "EGFP-ANKRD11 full length (FL), wild type mutant E2522K [not stated] / NCOR1 (endogenous, HEK293T) [Homo sapiens (Human).] chain 1 E2522K", "values": [{"measurement": "screen value", "setting": "[2]", "result": 2.9, "unit": "log2"}]}, {"substance": "EGFP-ANKRD11 full length (FL), wild type mutant R2512Q [not stated] / endogenous SETD5 of Flp-In T-REx 293 and HEK293T cells [human (endogenous in Flp-In T-REx 293 and HEK293T)] chain 1 R2512Q", "values": [{"measurement": "screen value", "setting": "[1]", "result": 4, "unit": "log2"}]}, {"substance": "EGFP-ANKRD11 full length (FL), wild type (from UniProt Q6UB99) R2523W", "values": [{"measurement": "other: log2 fold change (WT/mutant)", "setting": "[4]", "result": 5.9, "unit": "log2"}, {"measurement": "other: log2 fold change (WT/mutant)", "setting": "[5]", "result": 2.8, "unit": "log2"}]}, {"substance": "EGFP-ANKRD11 full length (FL), wild type mutant L2605R [not stated] / endogenous SETD5 of Flp-In T-REx 293 and HEK293T cells [human (endogenous in Flp-In T-REx 293 and HEK293T)] chain 1 L2605R", "values": [{"measurement": "screen value", "setting": "[1]", "result": 4.6, "unit": "log2"}]}, {"substance": "EGFP-ANKRD11 full length (FL), wild type (from UniProt Q6UB99) E2522K", "values": [{"measurement": "other: log2 fold change (WT/mutant)", "setting": "[3]", "result": 2.3, "unit": "log2"}, {"measurement": "other: log2 fold change (WT/mutant)", "setting": "[4]", "result": 2.9, "unit": "log2"}, {"measurement": "other: log2 fold change (WT/mutant)", "setting": "[5]", "result": 2.8, "unit": "log2"}]}, {"substance": "EGFP-ANKRD11 full length (FL), wild type mutant R2523W [not stated] / endogenous SETD5 of Flp-In T-REx 293 and HEK293T cells [human (endogenous in Flp-In T-REx 293 and HEK293T)] chain 1 R2523W", "values": [{"measurement": "screen value", "setting": "[1]", "result": 5.6, "unit": "log2"}]}, {"substance": "EGFP-ANKRD11 full length (FL), wild type mutant R2512Q [not stated] / NCOR1 (endogenous, HEK293T) [Homo sapiens (Human).] chain 1 R2512Q", "values": [{"measurement": "screen value", "setting": "[2]", "result": 4.2, "unit": "log2"}]}]}
